This is an account of results in patent US20110177074A1 (ZymoGenetics, published 2011).

By koff is commonly meant a measure of how fast the partners let go of each other. Higher therefore signals a short-lived complex. The kon is a measure of how fast the partners come together. High values mean fast association, low ones slow association.

Assay [1] concerns the target T1, human VEGF-A165 (human, UniProt P15692 207-395).
T1 construct: R&D Systems; homodimer; also called recombinant human VEGF-A
Kind of assay: SPR, VEGF-A immobilised, positive control, 1:1 dissociation fit. (In general: SPR reads the build-up and loss of mass on a sensor chip optically.)

Assay [2] has as its target T1, human VEGF-A165. Kind of assay: SPR (Biacore T100), VEGF-A immobilised, VEGFR-2-Fc5 analyte, bivalent analyte fit.

B1: human VEGFR-2-Fc5 (Fc fusion)
chain: not shown
notes: also called VEGF Receptor-2
For the molecule B1, the off-rate constant (koff) with human VEGF-A165 [1] was roughly 0.0002 s⁻¹. Also, in the assay with human VEGF-A165 [2], the Ka came out at 1e+08 M⁻¹, the Kd came out at 10 nM, the dissociation rate constant (koff) was 0.0002 s⁻¹ and the association rate constant (kon) was 20000 M⁻¹ s⁻¹.
